The record followed here is paper PMC11703246.

Values joined by “and” are separate entries in the source; they are usually repeats but may differ in a detail not shown here. Identical values can stand only once. Like-named read-outs stand apart in the source and are kept apart here.

Holding throughout (test): mass photometry
Assay [1] addresses PopZ P146A (Caulobacter crescentus).
For assay [2] the target is unchanged. The source holds these as a separate data set.
In assay [3] the target is isolated OD-ΔL6 of PopZ (residues 102-171) (Caulobacter crescentus).
The target in assay [4] is polar organizing protein Z (PopZ), wild type (Caulobacter crescentus).
The target in assay [5] is ΔH2-PopZ (PopZ lacking residues 102-128) (Caulobacter crescentus).
Assay [6] concerns the target ΔL6-PopZ (PopZ lacking residues 172-177) (Caulobacter crescentus).
For assay [7] the target is unchanged. The source holds these as a separate data set.
For assay [8], the target named is Δloop-PopZ (PopZ lacking residues 129-134) (Caulobacter crescentus).

Broadly, the stoichiometry N is a count of units in the complex or per binding partner. Turning to PopZ P146A (natural protein), the stoichiometry N in assay [1] and in assay [2] was 3 each time.
Take “isolated OD-ΔL6 of PopZ (residues 102-171) (domain or fragment)”: in assay [3], the stoichiometry N stood at 6.
Regarding “polar organizing protein Z (PopZ), wild type (natural protein)”, the stoichiometry N in assay [4] is 12 and 18.
As to “ΔH2-PopZ (PopZ lacking residues 102-128) (natural protein)”, the stoichiometry N in assay [5] was 3 and 6.
For the substance “ΔL6-PopZ (PopZ lacking residues 172-177) (domain or fragment)”, the stoichiometry N in assay [6] and in assay [7] was 6 throughout.
Take “Δloop-PopZ (PopZ lacking residues 129-134) (natural protein)”: the stoichiometry N in assay [8] stood at 3.
